# Measured values published in the nanobody polyreactivity screen of Harvey et al. (2022).
# Test: yeast display, Sf9 membrane polyspecificity reagent, FACS + sequencing; frameworks hold sequencing errors
# How it was run: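 After 36–48 hours of galactose induction, yeast (Saccharomyces cerevisiae BJ5465) displaying a synthetic nanobody library were stained at 4 °C for 1 hour with 10% biotinylated, detergent-solubilized Sf9 membrane reagent. Streptavidin microbeads enriched the stained cells before FACS sorting into low and high (top ~1%) gates on anti-HA and streptavidin fluorescence. Each clone's polyreactivity label reflects its gate of origin.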
row,Sequence,polyreactivity (PSR sort gate)
1,EEELVESAVRLVQAGVSLRLSCAASAIIYAYNAMGWYRQAPGKESELVAAISSGDDTNYADSVKGRFTISRDNAKNTVYLQLNSLKPEDTAVYYCAAEVWTAFTHGSYWTVVDYDYWGQGTQVTVST,low polyreactivity
2,EEELVESGGGLVQAGGSSLRLSCAASGRTFSTNVMGWYRQAPGKERELVAAINRSGGSTYYADSVKGRFTISRDNAKNTVYLQMNSLKPEDTAVYYCAKRDGVGNHEFDYWGQGTQVTVSS,low polyreactivity
3,EVHLVESGGGLVQPGGSLRLSCAASGDIYSRYRMGWYRQAPGKGREFVAAISGGSSTNYADSVKGRFTISRDNSKNTVYLQMNSLRAVDTAVSYCAAYKIDSDPRVYWGQGTQVTVSS,low polyreactivity
4,EVQLEESGGGLVQAGGSLRLSCAASGSTFYQYALGWSRQAPGKERELVAAITTIGGRTYYADSVKGRFTISRDNAKNTVYLQMNSLNPEDTAVYYCAAGYRAWEPYGHYGYWGQGTQVTVSS,high polyreactivity
5,EVQLEESGGGLVQAGGSLRLSCPASGLIFGLYAMGWYRQAPGKERELVAAISYRTDSTYADSVKGRFTISRDNAKNTFYLQKNSLIPEDTAVYYCAADLRVSVGYYYWGQGTQVTVSS,low polyreactivity
6,EVQLVESGAGLVQAVGSLRLSCYASGFIFGYNAMGWYRQAHGKERELVAAISSGGGNTYYADSVKGRFTISRDNAKNTVYLQMNSLKPEDTAVYYCAAPDPRRPRRGDSWGQGTQVTVSS,low polyreactivity
7,EVQLVESGGGLVQAGGSLRLICAASGRTFQNYAMGWYRQAPGKERELVADITSGGSTYADSVKGRFTISRDNAKNTVYLQMNSLKPEDTAVYYCNADRTYPEPAEYYYWGQGTQVTVSS,low polyreactivity
8,EVQLVESGGGLVQAGGSLRLSCAASGRTFSYYAMGCYRQAPGKERELVAAISGGGSTNYADSVKGRFTISRDNAKYTVYLQMNSLKPEDTAVYYCAVGGFLRYRISLGKSYYYWGQGTQVTVSS,high polyreactivity
9,EVQLVESGGGLVQAGGSLRLSCAASGSTFRYNAMGWSRQAPGKEWEFVATISWTTGSTYYADSVKGRFTISRDNAKNTVYLQMNCLNAEDTAVYYCAAVASLFSDFRDYDYWGQGTQVTVSS,low polyreactivity
10,EVQLVESGGGLVQAGGSLRLTCAASGSIFPVYAMGWYRQAPGKERELVASISNGGTTYYADSVKGRFTISRDNAKNTVYLQMKSLKAEDTAVYYCAATGWAYGYGYGYWGQGSQVTVSS,low polyreactivity
11,EVQLVESGGGLVQPGGSLRLSCAASGYIYSRYRMGWYRQAPGKGREFVAAISGGSSTNYADSVKGRFTISRDNSKYTVYLQMNSLRAEDTAVYYCAAFKIDSDPRVYWGQGTQVTVSS,low polyreactivity
12,EVQLVESGGGLVQPGGSLRLSCAASGYIYSRYRMGWYRQAPGKGREFVAAISGGSSTNYADSVKGRFTSSRDNSKNTVYLQMNSLRAEDTAVYYCAAYKIDSDQRVYWGQGTQVTVSS,low polyreactivity
13,EVQQVESGGGLVQPGGSLRLSCAASGYIYSRYRMGWCRQAPGKGREFVAAISGGSSTNYADSVKGRFTISRDNSKITVYLQMKSLRAEDTAVYYCAAYMIDSDPRVFWGQGTQVNVSS,low polyreactivity
14,EVQVVESGGGLVQAGGSLRLSCAASGRIFLRNAMGWYRQAPGKEWEFVATITSGGSTFYADSVKGRFTISRDNAKNTFYLQMNRLKPEDTAVYYCAAPSYYTPFHTPNYCWGQVTQVTVSS,low polyreactivity
15,HAQLQESGGGLVQAGGSLRRSCAASGSMFRFSGMGWYRRAPGKERELVASIGFGSITYYADRVKGRFTISRDNANHTVYLQMNTLKPEDTAVYYCAVQVQDESWLDYWGQGTQVTVSC,low polyreactivity
16,HAQLQESGGGLVQAGGSLRRSFAASGSIFRFSGMGWYRRAPGKERELVASIGFGSITYYADRVKGRFTISRDNANNTVYLQMNSLKPEDTAVYYCAVQVQDESWLDYWGQGTQVTVSC,low polyreactivity
17,HEQRVESCGGLVQARCSLRLSCAASGGTFRYNTMGWYRQAPGKERDLVADISSDGRTYYADSVKGRFTISRDNAKTSVYLQMNSLKPEDTAVDYCAVDRFTPDVYEYGYWGQGTQVTVSS,high polyreactivity
18,HLQLVESGGGLVQAGGSLRLSCAASGSIFYYNAMGWYRQAPGKERELVASIRANGGNTYYADSVKGRFTISRDNAKNTVYLQMNSLKPEETAVYYCAKESRYAHLYYYWGQGTQVTVSS,low polyreactivity
19,HVELVDSGGGLVQAGGSLRLSCAASGSIFTDNTRGWFRQAPAKDRELVASISSGGRTYYADSVKGRFTISRDNAKNTVYLQMNSLKPEDTAVSYCAVSCWWKHNYWGQGTQVTVSS,high polyreactivity
20,HVPLVESGGGIVQAGGRMRLSCAASGSTFTEYAMGGYRQAPGKQREWVAGISSDGSTKYADSVKGRFTISRDNAKNTVYLQMNSLNPEDSAVYYCNKDQSDAKFDYWGQGTQVTVSS,low polyreactivity
21,HVQLQESGGGLVQACGSQRLSCAASGSISEGQDMGRYRLAPGKEREFVAGIAPGATTYYADSVKGRFTISRDNAKITVYLQMNSLIPEDNAVYYCAARSVTETDHDYWGQGTQVTVSS,low polyreactivity
22,HVQLQESGGGLVQAGGSLRLSCAASGSIFQATYMGWYRQAPGKEREFVASITYGSITKYADSVNGRFTIGRDNAKDTLYLQMNSLKPEDTAVYYCAVDRHYIPAFHYWGQGTQVTVSS,low polyreactivity
23,HVQLQETGGGLVQAGGSLRLSCAASGSIFQATYMGWYRQAPGKEREFVASITYGSITIYADSVKGRFTIGRDNAKDTLYLQMNSLKPEDTAVYYCAVDRHYIPAFHYWGQGTQVTVSS,low polyreactivity
24,HVQLVDSGGGLVQAGGSLRLSCAASGYTFKYNTMGWYRQAPGKERDLVAAITRSGGSTYYADSVKGRFTISRDNAKNTVYLQMNSLKPEDTAVYYCAARAAYKQPVSFDYWGQGTQVTVSS,high polyreactivity
25,HVQLVESAGGLVQAGGSLRVSCAASGRTFEDNAMGWSRPAPGKERELVAAISSAGSTNYADSVKGRFTISRDNAKNTVYLQMTSLKPEDTAVYYCNATVYWPYDWRTSDYWGHGTQVTVSS,low polyreactivity
26,HVQLVESGGALVQAGGSLRLSCAASGYIFYYYAMGWYRQAPGKERELVAAITFSGGSTYYADSVKGRFTISRDIAKNTVYLQMNSLKPEDTAGYYCDKVELRDAAELGSDEYDYWGQGTKVTVSS,low polyreactivity
27,HVQLVESGGGIVQAGGSLRLSCAASGSTYVTNDMGSYRQAPGKERELVAAIYSGTSTNYADSVKGRFTISRDNAKNTVYLQMNSLKPEDTAVYYCAADSLKRYDYWGQGTQVSVSS,low polyreactivity
28,HVQLVESGGGIVQAGGSLRLSSAASGSTFGSNAMGWYRQAPGKERELVAAITYSGGRTYYADSVKGRFTISRDNAKNTVYLQMNSLKPEDTAVYYCAATFGFFYYQYDYWGQGTQVTVSS,low polyreactivity
29,HVQLVESGGGLVEAGGSLRLSCAASGYISYVNAMGWYRQAPGKERELVATISIRGGRTYYADSVKGRFTISRDNAKNTVYLQMNSLKPEDTAVYYCNVRRAYYRRGPYYSTYYYWGQGTQVTVSS,high polyreactivity
30,HVQLVESGGGLVHAGGSLRLRCAASGFTFTTYAMGWYRQAPWKEMELVARISRRSGSTYYADSVKGRFTLSRDNAKNTVYLQMNSLKPDDTAVYYCNADVDRSTTIFDYWGQGTQVTVSS,high polyreactivity
